Measurements: PMC10104900 (The Journal of Clinical Investigation, 2023)

Columns and labels:
[1] = biological target: recombinant FL spike B.1.1.7 Alpha, stabilized by 2P mutations (SARS-CoV-2 B.1.1.7 Alpha, strain)
[2] = biological target: recombinant FL spike B.1.351 Beta, stabilized by 2P mutations (SARS-CoV-2, B.1.351 Beta, strain)
[3] = biological target: recombinant FL spike P.1 Gamma, stabilized by 2P mutations (SARS-CoV-2, P.1 Gamma, strain)
[4] = biological target: recombinant FL spike B.1.617.2 Delta, stabilized by 2P mutations (SARS-CoV-2, B.1.617.2 Delta, strain)
[5] = biological target: T1, recombinant FL spike WT-6P (SARS-CoV-2 WT (Wuhan-Hu-1), UniProt P0DTC2, stabilised, biotin (EZ-Link Sulfo-NHS-Biotin) in the BLI experiments); assay: ELISA; settings: both partners purified
[6] = biological target: T1, recombinant FL spike WT-6P; assay: BLI; settings: both partners purified

Binder | binding result [1] | binding result [2] | binding result [3] | binding result [4] | binding result [5] | binding result [6]
S451-1140 (antibody, V domains shown) VH: EVQLVESGGGLVPPGGSLRLSCAASGFIFSNYAMTWVRQAPGKGLEWVSAISGGGGSTDYADSVKGRFTISRDNSKNTLYLQMNSLRAEDTAVYYCAKDLFGSGWSLFDNWGQGTLVTVS VL: not shown | binds | binds | binds | binds | – | –
S728-1157 IgG (antibody, V domains shown, copies: 2 + 2) VH: EVQLVESGGGLVQPGGSLRLSCAASGLLVSRNYMNWVRQAPGKGLEWVSIIYSGGSTFYADSVEGRFTISRDESKNTLYLQMNSLRTDDTAVYYCARDLSDYGGIDCWGQGTLVTVSS VL: YELTQPLSVSMALGQTARISCGGDNVGSQNVHWYQQRPGQAPVLVIYRDSNRPSGIPERFSGSKSGNTATLTISRAQAGDEADYYCQVWDSSTVAFGGGTKLTVL | – | – | – | – | binds | –
S728-1157 Fab (Fab, V domains shown) VH: EVQLVESGGGLVQPGGSLRLSCAASGLLVSRNYMNWVRQAPGKGLEWVSIIYSGGSTFYADSVEGRFTISRDESKNTLYLQMNSLRTDDTAVYYCARDLSDYGGIDCWGQGTLVTVSS VL: YELTQPLSVSMALGQTARISCGGDNVGSQNVHWYQQRPGQAPVLVIYRDSNRPSGIPERFSGSKSGNTATLTISRAQAGDEADYYCQVWDSSTVAFGGGTKLTVL | – | – | – | – | – | binds
S626-161 (antibody, V domains shown) VH: QLQLQESGPGLVKPSEALSLTCTVSGGSISTSNYYWGWIRQPPGKGLEWIGSIYYRGGTHYNPSLKTRVTISVDTSKNQFSLKLSSVTAADTAVYYCARHTYFYDIVGAAVWEPFDIWGQGTMVTVSS VL: not shown | binds | binds | binds | binds | – | –
